experiment: soluble on expression in E. coli; label from the status in PepcDB or PDB records

Row | Sequence | soluble on expression in E. coli
1 | TMSHGFGVMAGINLTKNIGVQAEVNYYQINQKYADGNLNRDLTINYFNIPVLLSLNTNKAAPVNLNLVAGPQFGINAGSKFETSGNGNTDSTTAVVALRKGDVGVAYGAGLEFALNKSHSVRLDLGFRGFYGLVNMDSSTNGQGTYNVIVSASRKTYGGYAGITWMF | not soluble
2 | MSLLERLNQDMKLYMKNREKDKLTVVRMVKASLQNEAIKLKKDSLTEDEELTVLSRELKQRKDSLQEFSNANRLDLVDKVQKELDILEVYLPEQLSEEELRTIVNETIAEVGASSKADMGKVMGAIMPKVKGKADGSLINKLVSSQLS | soluble
3 | MAHHHHHHMRAQSDLSPSSVSELRSKLKGVRVEVGSLVSFRDEPAFEMVMRLNKRHNGNLVSAVLSKGNAACGLGGDASGSGEGIGEGRVMADRSRHVEELRMVFIPKAYGAFLEDEMQKWLDPFRGRGEANRTKRKRDEVDDNEVTDIDSDVDTDECDDADSFRSV | soluble
4 | MSCCKECGHTLENVEVEAYEKRQVFDIPPVNLIVTEHKSQIKTCPHCGRINKAVFPESVKYPVQYGPNILASAIYCKNHHFIPYERISEFFEDIMGIKICPATIIRAEKECFQNLECFENIIREKLMTSYVVHFDETGMKIEGKRHWLHVASNDKYTCYLPHSKRGAEAIDAMGILPEFKGVAVHDGWKPYNVYDCDHAL | not soluble
5 | MGSDKIHHHHHHMIRMNISVRNLKEITDLLSTIVSEAKFKVDENGMSVTAVDPAHVAMIRLEVPKEVFSEFRSDGTEEIALDIDRLKSVIRLANSSENVGITKDKEKLKFDLGNISKSVSLLDPSTIVTPKIPNIASEYYAIIKRSDFERGLRAAEDISDSIRFVLSSEGFRATSHSESEESEMVLPKDMLSDLSCSDTIKSSYPLEYLLKFIKAVSSADSLKISFRDDYPLSIEFYLDQNPSAKIKGLFLLAPRMEQ | not soluble
6 | SKSRRWVFALRHGERVDLTYGPWVPHCFENDTYVRKDLNLPLKLAHRAGGKGGYVKDTPLTRLGWFQAQLVGEGMRMAGVSIKHVYASPALRCVETAQGFLDGLRADPSVKIKVEPGLFEFKNWHMPKGIDFMTPIELCKAGLNVDMTYKPYVEMDASAETMDEFFKRGEVAMQAAVNDTEKDGGNVIFIGHAITLDQMVGALHRLRDDMEDVQPYEIGRNLLKVPYCALGAMRGKPWDVVSPPCPPSINSSSGRFDWRILIK | soluble
7 | SNALFSSRDILEVLQDIHMETGETVAIATKNDIYLQYIQIIESVHALRFHVDENAIRPLTMSSNGWMLMSTMNDKAIDNTVRRANTITQKDGIRFEVDDMMARIRQVREQGYASAEHIPFVGGGTICVLLPMTIQGQPVTMGLGGALDRIKQNYDRYLELLLNGVQQLKKSDSFHQPI | soluble
8 | MAHHHHHHMQTYHRHMTSSSNPVVIFVFDHQGSAVTDFWAPLLQSVSKGLDAFGIEVAHAPTSSEIGQQLLAAMNAGSGPIILFFQGVGDTPAEGGKGLKMPIAYDGNIDMAHIMSWGLSCISSSVTHRVHNDVDLARFFAQYPQYPALPHVLYFPSTSYTPGGYLALSQHFALDAVFGVVPNAFTAPNATHIAQRYNITSKDELPVLLVLHRSTADAGGGAGESDRVVRMPAAATSLSYREALAFLSTQITDTVAALVAKAESTQNQHFLEVAESRRVYMMGQLIERQHDIVEEERLQMAREPILVKDQAVWAKECVQLPKKHRCVAAFVDSAQDSAAKDNAVKVLSLVSVKLLEIMGREAQKVSLVVVDRQGSDAVREYFDVGHNGFPDVLFLSLDRPAKYYNFVGTFSAEGVTQFVASHDAQLTQKDVRGGHTFIPRMVPKLEEAVAVPRSGDEDKDDL | soluble
9 | MSRFIPIELHHASRLLNHGPTVLITSFDEQSQRRNIMAAAWSMPVEFEPPRVAIVVDKSTWTRELIEHNGKFGIVIPGVAATNWTWAVGSVSGRDEDKFNCYGIPVVRGPVFGLPLVEEKCLAWMECRLLPATSAQEEYDTLFGEVVSAAADARVFVEGRWQFDDDKLNTLHHLGAGTFVTSGKRVTAG | soluble
10 | MSWREKLGMIHIYTGNGKGKTTAALGLALRMLGSGGKVIIIQFMKAPKVYGEYFMAEKCNFKIESYGLPKFVHGKPDEEDIKAAKRALERAREVVKSGEWDLVILDEICVALGFGMLNIEEVKELIQEKAKNTELVLTGRYCPKELYELADYVTEMREIKHPYQRGILARRGVEY | soluble
11 | MGSDKIHHHHHHMNTADNVVEMRSISKGFNGVSVLKDVSFDVRKGEVHALAGGNGAGKSTLMKILQGVYQADAGEILIGGKPVAINSIQDAKSAGIGMVFQEFSLVPSLTVAQNIFLAAEPLGAGGLIDDRASERRAKEIFAEMEVKVDPRAEVSRLGTAYWQLTEIAKALSQNAQVLIMDEPTASLARHESEALFELIDRLKQRGISIIYISHRMDEVYRLADRITILRDGRRLLTEPLTGVTPEQIVEGIVGKKIEGQLAYRERDQVAHDSAPLLEVRGLNAGPRVRDISFSLRPGEILGLAGLMGSGRTELARALFGIDRRDSGEIFIRGERINLTSPQQAITAGVALIPEDRRAQGLVLEHSVQDNLLLPLLGQIQRGPFLDGARGKELSSSLIKRFAVKVAHPHRPVRLLSGGNQQKVVIAKWLGTDPDILILDEPTAGVDIGTKSEILDMIRELASAGKAVIVISSEYPELLAVSDRVLVLKDGSIIRDIPRSEIADEEYLQLAVQGV | not soluble
12 | SPDEQLLKQVSELLQQGEHAQALNVIQTLSDELQSRGDVKLAKADCLLETKQFELAQELLATIPLEYQDNSYKSLIAKLELHQQAAESPELKRLEQELAANPDNFELACELAVQYNQVGRDEEALELLWNILKVNLGAQDGEVKKTFMDILSALGQGNAIASKYRRQLYSILY | soluble
13 | MGSDKIHHHHHHMIVTEYELLVCLAEELNMRKSAEKLFLSQPALSQRLQTIESRWNTKIFIRTQKGLLLTPEGEAIVRHASSVIEREHTIQEKLEAMEGVVRGTLRIACASVVAQMWLPRVLKAFSRTYPNVQISLVTGWSSEVTQQLAAGNVHIGIVRGSSTWKSVQKPLFNDKLILVDTEITKIEEVFQTNRPFIQFRSDSNYYQVIQDYWQRNFGKMPRQAMLMDQMETSRQMALNGIGFAILPEVTMIGYTDKINKIPLTEKDGSILSRETNLLTYEQSLSLPQVKAFLEITDKFLEQVK | not soluble
14 | NQKMIASAFNNALGAIQDGFDATNSALGKIQSVVNANAEALNNLLNQLSLVPRGSGGSGGSGGLNVTLLDLTYEMNRIQDAIKKLNESYINLKE | soluble
15 | MSLAAPTLTGGKLTVGIQGTHAELGVLLYPGVQMAAVHGLSDLFEVANRIAGEQPQAQLPRLRVSHWQASGELPPVRVHDSLAEAPGALLAVLIPPSLAGFSSHQSSAALMDWLRQQHAAGATLGGVCVGSILLAESGLLDGRSATTHWTSAQAFAERYPQVRLEADKPIVDDGDLITSAGLMAWAELGLRLVNRLLGPSIASATARFLVMEHSASASQCGSNFAPILSHGDGAILKLQHWLQANGAVDVSLPVMAQQAGLEPRTLLRRFRAATGLKPTQYCQHLRVGKARELLEFTNGSIDHIAWTVGYQDPATFRSLFRKITGLAPSEYRNRFGATSTAASREGHHHHHH | soluble
16 | MATVTELKAVLKDTLEKRGVLGHLKARIRAEVFNALDDDREPRPSLSHENLLINELIREYLEFNKYKYTASVLIAESGQPVVPLDRQFLIRELNAFEESKDNSIPLLYGILAHFLRGPPDGAQNVLLTESTLHPATKHLSWKPSRRPDDDHVRKDTGPRTTTEELPAAAQAVSR | soluble
17 | MVKPDWWIREMARKGMIEPFEERLVREGVISYGLSSFGYDLRAAPEWKIFTNVFSSLVDPKNFDPKSFVEYEGEEVVIPPNSFALTRSLEYIRMPDNVIAIALGKSTYARCGIVVNVTPLEPGWEGHVTLEISNTTPLPAKVYAGEGIVQLLFLEGPRPEVTYRDRKGKYQGQKGITLPRV | soluble
18 | MGSDKIHHHHHHMSKKVVVTGANGYIGAHLIAELQKHSQHFQTIAVDIDDKYIPKGVTFVSMDLLNEARKETLYKECGEPDICVHLAWRDGFQHNALSHIDDLPCHFHFLKNLADHGTTHFAIAGSFREYGSVNGMVDQDAVVIPDNFYTLAKSMLKQALEIYFKEKNICLQWLRPFTVYGNDSRNNSIMSKIIRWEDEGKQSFPFTSGNEEYDYVSVYEVARQIAAVISQREVDGIIDCCTGKPTRLGDKIEGFIRENHFKIRPEYGAFPKREYDSSVIYGDNRKITEIIKKCILF | not soluble
19 | VLSHCLETGFLTAYLALLVNFKPDVALKCGLYHDIGKADDENGKKNHTVTGAKIGDEFYFENDVKYTIANHHNKNVDNVYCRLTQIGDKLSAG | not soluble
20 | MGHHHHHHSHMKNSSSVSNTLTNGCVINGHLDFPSTTPLSGMESRNGQCLTGTNGISSGLAPGQPFPSSQGSLCISGTEEPEKTLRANPELCGSLHLNGSPSSCIASRPSWVEDIGDNLYYGHYHGFGDTAESIPELNSVVEHSKSVKVQERYDSAVLGTMHLHHGS | soluble
21 | MKVLNELRQFYPLDELLRAAEIPRSTFYYHLKALSKPDKYADVKKRIGEIYHENRGRYGYRRVTLSLHREGKQINHKAVQRLMGTLSLKAAIKVKRYRSYRGEVGQTAPNVLQRDFKATRPNEKWVTDVTEFAVNGRKLYLSPVIDLFNNEVISYSLSERPVMNMVENMLDQAFKKLNPHEHPVLHSDQGWQYRMRRYQNILKEHGIKQSMSRKGNCLDNAVVECFFGTLKSECFYLDEFSNISELKDAVTEYIEYYNSRRISLKLKGLTPIEYRNQTYMPRV | not soluble
22 | MKRMLVGCLAAALLFSSGWATAEAKGKQQSKPKWADKNKDGIPDDWELKYKLGLGKNVANQDKDRDGLTNRVEYNLRLNPTKTDTDKDKILDGDEDTDRDGLTNSAEVALGTKPEDADSDNDHVKDGAEKKGKAQLANVVQKLELQMKTAANQTIKIDYHWSDRHSHLHIKDQTGEVTTNDVQSLINDLQASPSLSNDEVIAKIQTLFSLDTPFRLELEWKYGSGRARKLSVKQDEDKGENAGQPGDDQDDDDQGHDQDGHDQNHDQDDDDYDGGNVGGDDGNSSE | not soluble
23 | SSFKKILGLSSKSHKKSKKMGLPPPYDESSPMETQPSAPLSNDFFGMEDMDLYDKDSLRYEKFRFMLKMTVRSNKPFRSYDDVTAAVSQWDNSYIGMVGKRPFYKIIALIGSSHLQATPAVLADLNQPEYYATLTGRCFLPHRLGLIPPMFNVSETFRKPFNIGIYKGTLDFTFTVSDDESNEKVPHVWEYMNPKYQSQIQKEGLKFGLILSKKATGTWVLDQLSPFK | soluble
24 | NKSIRMTPSQVAFEIRGTLLPGEVFAICGSCDALGNWNPQNAVALLPENDTGESMLWKATIVLSRGVSVQYRYFKGYFLEPKTIGGPCQVIVHKWETHLQPRSITPLESEIIIDDGQFGIHNGVETLDSGWLTCQTEIRLRLHYSEKPPVSITKKKLKKSRFRVKLTLEGLEEDDDDRVSPTVLHKMSNSLEISLISDNEFKCRHSQPECGYGLQPDRWTEYSIQTMEPDNLELIFDFFEEDLSEHVVQGDALPGHVGTACLLSSTIAESGKSAGILTLPIMSRNSRKTIGKVRVDYIIIKPLPGYSCDMKSSFSKYWKPRIPLDVGHRGAGNSTTTAQLAKVQENTIASLRNAASHGAAFVEFDVHLSKDFVPVVYHDLTCCLTMKKKFDADPVELFEIPVKELTFDQLQLLKLTHVTALKSKDRKESVVQEENSFSENQPFPSLKMVLESLPEDVGFNIEIKWICQQRDGMWDGNLSTYFDMNLFLDIILKTVLENSGKRRIVFSSFDADICTMVRQKQNKYPILFLTQGKSEIYPELMDLRSRTTPIAMSFAQFENLLGINVHTEDLLRNPSYIQEAKAKGLVIFCWGDDTNDPENRRKLKELGVNGLIYDRIYDWMPEQPNIFQVEQLERLKQELPELKSCLCPTVSRFVPSSLCGESDIHVDANGIDNVENA | soluble

Source: the DeepSol protein solubility set
